The series is described as follows: yeast display, Sf9 membrane polyspecificity reagent, FACS + sequencing; frameworks hold sequencing errors. The method, boiled down:
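A nanobody's polyreactivity label depends on the gate it was sorted from. Yeast display cells were stained with 10% biotinylated, detergent-solubilized Sf9 membrane reagent for 1 hour at 4 °C, enriched on streptavidin microbeads and sorted by FACS. The low and high (top ~1%) gates were set on anti-HA fluorescence for expression and streptavidin fluorescence for reagent binding.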
As for “QVQLVESGGGLVQAGGSLRLSCAASGITFNSYAMGWYRQAPGKERELVAAITLTGGTTYYADSVKGRFTISRDNAKNTVYLQMNSLKPEDTAVYYCAAQYWWWSRFEYDSWGQGTQVTVSS”, the “polyreactivity (PSR sort gate)” value is listed as “low polyreactivity”.

Turning to “QVQLVESGGGLVQAGGSLRLSCAASGITFNYNAMGWYRQAPGKERELVARITWSGTRTYYADSVKGRFTISRDNSKNTVYFQMNSLKPEDTAVYYCNAGPYARYYWGQGTQVTVSS”, the “polyreactivity (PSR sort gate)” value is listed as “high polyreactivity”.

On to “QVQLVESGGGLVQAGGSLRLSCAASGITFNYYAMGWYRQAPGKERELVAVISSSGGRTYYADSVKGRFTISRDNAKNTVYLQMNSLKPEDTAVYYCAAGGSVAFYYWGQGTQVTVSS”, for which the “polyreactivity (PSR sort gate)” value is recorded as “high polyreactivity”.

In the case of “QVQLVESGGGLVQAGGSLRLSCAASGITFPGYAMGWYRQAPGKERELVAAISTSGGSTYYADSVKGRFTISRDNAKNTVYLQMIRLKPEDTAVYYCAADSFVTSFHWRFDYWGQGTQVTVSS”, the “polyreactivity (PSR sort gate)” value is given as “low polyreactivity”.

For “QVQLVESGGGLVQAGGSLRLSCAASGITFPKYAMGWYRQAPGTERELVAAITKSGGSTYYADSVKGRFTISRDNAKNTVYLQMNSLKPEDTEVYYCAVVSRGITKYDYWGQGTQVTVSS”, the “polyreactivity (PSR sort gate)” value is listed as “high polyreactivity”.

On to “QVQLVESGGGLVQAGGSLRLSCAASGITFPLYAMGWYRQAPGKERELVASITRGGTTNYADSVKGRFTISRDNAKNTVYLQMNSLKPEDTAVYYCAAVVTRERGYDYWGQGTQVTVSS”, for which the “polyreactivity (PSR sort gate)” value is on record as “low polyreactivity”.

As for “QVQLVESGGGLVQAGGSLRLSCAASGITFPRYAMGWYRQAPGKERELVATITSRGGSTYYADSVKGRFTISRDNAKNTVYLQMNSLKPEDTAVYYCNAQYLLFHGYRYDYWGQCTQVTVSS”, the “polyreactivity (PSR sort gate)” value is recorded as “high polyreactivity”.

On to “QVQLVESGGGLVQAGGSLRLSCAASGITFPYYAMGWYRQAPGKERELVAAISSSGGSTYYADSVKGRFTISRDNAKNTVYLQMNSLKPEDTAVYYCAAQRYIHYDYWGQGTQVTVSS”, for which the “polyreactivity (PSR sort gate)” value was “high polyreactivity”.

Turning to “QVQLVESGGGLVQAGGSLRLSCAASGITFPYYDMGWYRQAAGKERELVAAIDWSGATSYYADSVKGRFTISRDNAKNTVYLQMNSLKPEDTAVYHCNADPPLDLWYVTNRIYHLYDYWGQGTQVTVSS”, the “polyreactivity (PSR sort gate)” value is reported as “high polyreactivity”.

For the sequence “QVQLVESGGGLVQAGGSLRLSCAASGITFQHYAMGWYRQAPGKERELVAAITWRGSNTYYADSVKGRFTISRDNAKNTVYLQMNSLKPEDTAVYYCAAVLSLRSRNYWGHGTQVTVSS”, the “polyreactivity (PSR sort gate)” value is listed as “high polyreactivity”.

With “QVQLVESGGGLVQAGGSLRLSCAASGITFQIYAMGWYRQAPGKERELVAAISRSGGSSTNYADSVKGRFTISRDNAKNTVYLQMYSLNPEDTAVYYCAAVSPYTGGANDYWGQGTQVTVSS”, the “polyreactivity (PSR sort gate)” value is recorded as “high polyreactivity”.

In the case of “QVQLVESGGGLVQAGGSLRLSCAASGITFQNYAMGWYKQAPGKERELVAAITRSGGRTYYADSVKGRFTISRDNAKNTVYLQMNSLKPEDTAVYYCAVYGIGRPYWYDYWGQGTQLTVSS”, the “polyreactivity (PSR sort gate)” value is “high polyreactivity”.

Take “QVQLVESGGGLVQAGGSLRLSCAASGITFQRYAMGWYRQAPGKERELVAAISWSGGSTYYADSVKGRFTISRDNAKNTVYLQMNSLKPVDTAVYYCAAELSVSTSHGVDYWGQGTQVTVSS”: the “polyreactivity (PSR sort gate)” value was “high polyreactivity”.

Regarding “QVQLVESGGGLVQAGGSLRLSCAASGITFQSNAMGWYRQAPGKERELVAGISGSGTSTYYADSVKGRFTISRDNAKNTVYLQMNSLKPEDTAVYYCAAAQSKYSFYWGDYYYWGQGTQVTVSS”, the “polyreactivity (PSR sort gate)” value is recorded as “high polyreactivity”.

On to “QVQLVESGGGLVQAGGSLRLSCAASGITFQYYAMGWYRQAPGKERELVAAISGGGSTNYADSVKGRFTISRDNAKNTVYLQMNSLKPEDTAVYYCAAADLNLELDYWGQGTQVTVSS”, for which the “polyreactivity (PSR sort gate)” value is given as “high polyreactivity”.

With “QVQLVESGGGLVQAGGSLRLSCAASGITFRGYAMGWYRQAPGKERELVADITWNGGSTYYADSVKGRFTISRDNAKNTVYLQMNSLKPEDTAVYYCAADGYPIYWSSYRFYYWGQGTQVTVSS”, the “polyreactivity (PSR sort gate)” value is “high polyreactivity”.

For the sequence “QVQLVESGGGLVQAGGSLRLSCAASGITFRHYAMGWYRQAPGKERELVAAITSRGGSTYYADSVKGRFTISRDNAKNTVYLQMNSLKPEDTAVYYCAARRRLRAPDDYWGQGTQVTVSS”, the “polyreactivity (PSR sort gate)” value is “high polyreactivity”.

On to “QVQLVESGGGLVQAGGSLRLSCAASGITFRLYAMGWSRQAPGKEREFVAAISRRGGSTYYADSVKGRFTISRDNAKNSVYLQMNSLKPEDTAVYYCARYGLVYALGYWGQGTQVTVSS”, for which the “polyreactivity (PSR sort gate)” value is reported as “high polyreactivity”.

On to “QVQLVESGGGLVQAGGSLRLSCAASGITFRQNTMGSYRQAPGKEGELVAAITSSGRTYYADSVKGRFTISRDNAKNTVYLQMNSLKPEDSAVYYCAADTYYFGYGYWGQGTQVTVSS”, for which the “polyreactivity (PSR sort gate)” value was “high polyreactivity”.

Consider “QVQLVESGGGLVQAGGSLRLSCAASGITFRQYAMGWYRQAPGKEREFVAAISWIGGSTYYADSVKGRFTISRDTAKNTVYLQMNSLKPEDTAVYYCAAETFTDYDYWGQGTQVTVSS”, for which the “polyreactivity (PSR sort gate)” value is “high polyreactivity”.

In the case of “QVQLVESGGGLVQAGGSLRLSCAASGITFRRNAMGWYRQAQGKESQLVAAITSRGGSTYYADSVKWRFTISRDNAKNTVYLQMISMKPEDTAVYYCNAGGVDRVDRDYWGQGTQVTVSS”, the “polyreactivity (PSR sort gate)” value is “high polyreactivity”.

Turning to “QVQLVESGGGLVQAGGSLRLSCAASGITFRRYTMGWYRQAPGKEMELVAAISRIGGSTYYADSVKGRFTISRDNAKNTVYLQMNSLKPEDTAVYYCARAGRVQPGSEDDYWGQGTQVTVSS”, the “polyreactivity (PSR sort gate)” value was “high polyreactivity”.

As to “QVQLVESGGGLVQAGGSLRLSCAASGITFRSYAMGWYRQAPGKERELVAAISQSGTSTYYADSVKGRFTISRDNAKNTVYLQMNSLKPEDTAVYYCAASYYLKLRRRRYDYWGQGTQVTVSS”, the “polyreactivity (PSR sort gate)” value was “high polyreactivity”.

As for “QVQLVESGGGLVQAGGSLRLSCAASGITFRWYAMGWYRQAPGKERELVASISSGGITTYADSVKGRFTISRDNAKNTVYLQMNSLKPEDTAVDYCNAVGHTSIRRALDILDYWGQGTQVTVSS”, the “polyreactivity (PSR sort gate)” value is given as “high polyreactivity”.

In the case of “QVQLVESGGGLVQAGGSLRLSCAASGITFRYSAMGWYRQAPGKERELVAVISTSGGSTYYADSVKGRFTISRDNAKNTVYLQMNSLKPEDTAVYYCAARYTYWGLLRYDYWGQGTQVTVSS”, the “polyreactivity (PSR sort gate)” value is “high polyreactivity”.

In the case of “QVQLVESGGGLVQAGGSLRLSCAASGITFRYYAMGLYRQAPGKERELVAAITRSASSTFYADSVKGRFTISRDNAKNTVYLQMNSLKPEVTAVYYCAAESVRAVFPDRYKYWGQGTQVTVSS”, the “polyreactivity (PSR sort gate)” value is given as “high polyreactivity”.

As to “QVQLVESGGGLVQAGGSLRLSCAASGITFRYYAMGWYRQAPGKERELVAAISRSGGRTYYADSVKGRFTISRDNAKNTVYLQMNSLKPEDTAVYYCAVAVRRGRAYDYWGQGTQVTVSS”, the “polyreactivity (PSR sort gate)” value is “high polyreactivity”.

In the case of “QVQLVESGGGLVQAGGSLRLSCAASGITFRYYAMGWYRQAPGKERELVAAITRSGSTTYADSVKGRFTISRDNAKNTVYLQMNSLKPEDTAVYYCAVDYYYLTGGVDYWGQGTQVTVSS”, the “polyreactivity (PSR sort gate)” value is on record as “low polyreactivity”.

On to “QVQLVESGGGLVQAGGSLRLSCAASGITFRYYAMGWYRQAPGKERELVAVISTSGGSTYYADSVKGRFTISRDNAKNTVYLQMNSLKPEDTAVYYCAARYTYWGLLRYDYWGQGTQVTVSS”, for which the “polyreactivity (PSR sort gate)” value is “high polyreactivity”.

For the sequence “QVQLVESGGGLVQAGGSLRLSCAASGITFRYYAMGWYRQAPGKERELVAVISTSGGSTYYADSVKGRFTISRDNAKNTVYLQMNSLKPEDTAVYYCAVVWPYSERYYYWGQGTQVTVSS”, the “polyreactivity (PSR sort gate)” value is reported as “high polyreactivity”.

For the sequence “QVQLVESGGGLVQAGGSLRLSCAASGITFRYYAMGWYRQAPGKERELVAVITYSGSRTYYADSVKGRFTISRDNAKNTVYLQMNSLKPEDTAVYYGATKGAKRVIGETAYDYWGQGTQVTVSS”, the “polyreactivity (PSR sort gate)” value is listed as “high polyreactivity”.

Consider “QVQLVESGGGLVQAGGSLRLSCAASGITFRYYTMGWYRQAPGKERELVAAITWSGSSTYYADSVKGRFTISRDNAKNTVYLQMNSLKPEDTAVYYCNAVPYDYLADYWGQGTQVTVST”, for which the “polyreactivity (PSR sort gate)” value is reported as “low polyreactivity”.

Turning to “QVQLVESGGGLVQAGGSLRLSCAASGITFSFYAMGWYRPAPGKERELVAAINGRGGRTYYADSVKGRFTISRDNAKNTVYLQMNSLKPEDTAVYYCAAVVWRTDYDYWGQGTQVTVSS”, the “polyreactivity (PSR sort gate)” value is listed as “low polyreactivity”.

For the sequence “QVQLVESGGGLVQAGGSLRLSCAASGITFSFYAMGWYRQAPGKERELVAGLTRSGGDTYYADSVKGRFTISRDNAKNTVYLQMNSLKPEDTAVYYCAAAWFFYRRQYTFFAGRMDYWGQGTQVTVSS”, the “polyreactivity (PSR sort gate)” value is “high polyreactivity”.

Regarding “QVQLVESGGGLVQAGGSLRLSCAASGITFSGNAMGWYRQAPGKERELVAAISGGGSTNYADSVKGRFTISRDNAKNTVYLQMNSLKPEDTAVYYCAAEIIFWYLYRDYYYWGQGTQVTVSS”, the “polyreactivity (PSR sort gate)” value is on record as “low polyreactivity”.

Turning to “QVQLVESGGGLVQAGGSLRLSCAASGITFSNYAIGWYRQAPGKERELVAAISKRGGSTYYADSVKGRFTISRDNAKNTVYLQMNSLKPEDTAVYYCAAAGVRVYVRSGLDYWGQGTQVTVSS”, the “polyreactivity (PSR sort gate)” value is listed as “high polyreactivity”.

Regarding “QVQLVESGGGLVQAGGSLRLSCAASGITFSPSAMGWCRQAPGKERELVAAITSGGSTNYADSVKGRFTISRDNAKNTVYLQMNSLKPEDTAVYYCAAGRWPAPWYTRNYWGQGTQVTVSS”, the “polyreactivity (PSR sort gate)” value is “low polyreactivity”.

With “QVQLVESGGGLVQAGGSLRLSCAASGITFSPYAMGWYRQAPGKERELVAAISSRGGSTYYADSVKGRFTISRDNAKNTVYLQMNSLKPEDTAVYYCNALTFVRYLFHYTYWGQGTQVTVSS”, the “polyreactivity (PSR sort gate)” value is reported as “high polyreactivity”.

Turning to “QVQLVESGGGLVQAGGSLRLSCAASGITFSSYAMGWYRQAPGKERELVAGITRRGGITYYADSVKGRFTISRDNAKNTVYLQMNSLKPEDTAVYYCAATHRFRTGSPDGGYGYWGQGTQVTVSS”, the “polyreactivity (PSR sort gate)” value was “high polyreactivity”.

With “QVQLVESGGGLVQAGGSLRLSCAASGITFSSYTMGGYRQAPGKERELVARINSGGTTNYADSVKGRFTISRDNAKNTVYLQMNSLKPEDTAVFYCAAEWVSWRWAHKFDYWGQGTQVTVSS”, the “polyreactivity (PSR sort gate)” value was “high polyreactivity”.

“QVQLVESGGGLVQAGGSLRLSCAASGITFSVYAMGWYRQAPGKEWELVASISSGGTSTYYADSVKGRFTISRDNAKNTVYLQMNSLKPEDTAVYYCAAYSYYTGDQYSYDYWGQGTQVTVSS”: the “polyreactivity (PSR sort gate)” value is “low polyreactivity”.

Values taken from the nanobody polyreactivity screen of Harvey et al. (2022).
